Experimental data taken from patent publication US20100203552.

B1: TRIM2 protein from rat brain lysate / rat cortical neuronal cell lysates (protein)
chain: MQRAGSRTAGPTCQWSRMASEGASIPSPVVRQIDKQFLICSICLERYKNPKVLPCLHTFCERCLQNYIPAHSLTLSCPVCRQTSILPEKGVAALQNNFFITNLMDVLQRTPGSNGEDPSILQTVTAVAAGKPLSCPNHDGNVMEFYCQSCETAMCRECTEGEHAEHPTVPLKDVVEQHKASLQVQLDAVNKRLPEIDSALQFISEIIHQLTNQKASIVDDIHSTFDELQKTLNVRKSVLLMELEVNYGLKHKVLQSQLDTLLQGQESIKSCSNFTAQALNHGTETEVLLVKKQMSEKLNELADQDFPLHPRENDQLDFIVETEGLKKSIHNLGTILTTNAVASETVATGEGLRQTIIGQPMSVTITTKDKDGELCKTGNAYLTAELSTPDGSVADGEILDNKNGTYEFLYTVQKEGDFTLSLRLYDQHIRGSPFKLKVIRSADVSPTTEGVKRRVKSPGSGHVKQKAVKRPASMYSTGKRKENPIEDDLIFRVGTKGRNKGEFTNLQGVAASTSGKILIADSNNQCVQIFSNDGQFKSRFGIRGRSPGQLQRPTGVAVHPSGDIIIADYDNKWVSIFSNDGKFKTKIGSGKLMGPKGVSVDRNGHIIVVDNKACCVFIFQPNGKIVTRFGSRGNGDRQFAGPHFAAVNSSNEIIITDFHNHSVKVFNQEGEFMLKFGSNGEGNGQFNAPTGVAVDSNGNIIVADWGNSRIQVFDGSGSFLSYINTSADPLYGPQGLALTSDGHVVVADSGNHCFKVYRYLQ

Legend:
[1] = test system: GST-Bim polypeptide [GST: P08515]
Target sequence in this assay (P08515 whole entry, looked up, the tested form may be a part): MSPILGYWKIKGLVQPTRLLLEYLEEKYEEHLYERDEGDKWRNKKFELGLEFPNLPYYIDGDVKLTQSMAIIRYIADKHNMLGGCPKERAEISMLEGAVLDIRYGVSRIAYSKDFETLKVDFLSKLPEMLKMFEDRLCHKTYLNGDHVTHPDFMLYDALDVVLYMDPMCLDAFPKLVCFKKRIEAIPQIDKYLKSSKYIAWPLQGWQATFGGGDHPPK

[2] = test system: phosphorylated GST-Bim fusion protein [GST: P08515]
phosphorylated GST-Bim fusion protein [GST: P08515], sequence (P08515 whole entry, looked up, the tested form may be a part): as above

[3] = target: GST-Bim polypeptide [GST: P08515]; remark: listed apart in the source
Target sequence in this assay (P08515 whole entry, looked up, the tested form may be a part): as above

Molecule	Bim ubiquitination [1]	Bim ubiquitination [2]	Bim ubiquitination (anti-ubiquitin immunoblot of immunoprecipitated GST-Bim) [3]
Myc-tagged TRIM2 (myc-TRIM2)	Incubation of TRIM2 polypeptide with Bim resulted in low levels of Bim ubiquitination	addition of active MAPK to the reaction enhanced Bim ubiquitination	
B1			immunodepletion of TRIM2 protein reduces Bim ubiquitination in lysates from preconditioned cells to that of control lysates
